Source: paper PMC7187349, “Preparative and Kinetic Analysis of β‐1,4‐ and β‐1,3‐Glucan Phosphorylases Informs Access to Human Milk Oligosaccharide Fragments and Analogues Thereof” (Chembiochem, 2019)

Experiments:
Test in all cases: phosphorylase kinetics, synthetic direction
Type in all cases: biochemical, Acetivibrio thermocellus
Settings in all cases: acceptor cellobiose (1), matched acceptor; apparent
[1] = substrate: N[C@H]1[C@@H](OP(=O)(O)O)O[C@H](CO)[C@@H](O)[C@@H]1O
Excerpt: (§1) phosphorylase kinetics, synthetic direction on cellodextrin phosphorylase (CDP)

[2] = substrate: O=P(O)(O)O[C@H]1O[C@H](CO)[C@@H](O)[C@H](O)[C@H]1O
Excerpt: as §1

[3] = substrate: O=P(O)(O)O[C@H]1O[C@H](CO)[C@H](O)[C@H](O)[C@H]1O
Excerpt: as §1

B1: cellodextrin phosphorylase (CDP) (Acetivibrio thermocellus) (protein)
chain: MITKVTARNNKITPVELLNQKFGNKINLGNFADAVFTDAAFKNVAGIANLPMKAPVMQVLMENCIVSKYLKQFVPDRSVCFVEEGQKFYIVLEDGQKIEVPEDVNKALKATVSDVKHWAGYLTEDGEHVIDLLKPAPGPHFYVNLLIGNRLGFKRTLQTTPKSVVDRFGRGSFRSHAATQVLATRFDMRQEENGFPANRQFYLYEDGKQIFYSALIDDNIVEATCKHSCNRTVIKYKTACNLEITRTIFLVPHKKGFPLATELQRIEIKNASDKARNLSITYTGMFGTGAVHAIFEDVTYTNVIMQSAALYNDKGEFIGITPDYYPEEFKQDTRFVTMIVRNGDEKSFPQSFCTDYNDFVGTGTLEHPAGGCNLNNKLNRKGPGFFALGAPFTVEPGKTVIIDTFTGLSSSKDNENYSDAVMLRELDNLLRYFEKSESVEETLNEIINFHENYGKYFQFNTGNKLFDSGFNRNLAFQVLYQTFMSRSFGQTQKGYREIGFREIQDLFASMYYFINIGYQDFVKELLFEWTANVYKMGYANHNFYWVGKQPGLYSDDSLWLLQAYYRYIIYTKDTSVLNEEVPVADGNNEKRAVRETLKAIIQYSACISVGDHGLPLLDLADWNDCLKIASNSIDGATKEKLYYEQLKKTNGKYGDRFMSDYSESVMNAFLLKLAIDHLAEIATLDNDTQLAQQMSELSKEVTDRIQKHAWKENFFARVLINRYKDGSYTYLGAKGDKLSADPNIDGVYFLNSFAWSVLSDVATDEQIAIMVDVIKKHLLTPYGLRLVTPADLNKIANDTATGHYFFGDRENGAVFKHASMMAVAALIKAAKKVKDNELAKEMARIAYFMIDLVLPYKNLENPFQVAGNPRICTQYINTDTGENIGPLLSGTATWLNLNLISLAGIEYTRDGISFNPILREEETQLNFTLKAPKCSYKFSITKPVGFARMESSEYELFVDGQKIDNTVIPMYTDEKEHIVTLKFK
notes: wild type, GH94, recombinant from Escherichia coli; homodimer
- Km [1]: 1600 ± 200 µM
- kcat [1]: 0.08 ± 0.003 s⁻¹
- kcat/Km [1]: 50 M⁻¹ s⁻¹
- Km [2]: 3000 ± 600 µM
- kcat [2]: 16.4 ± 0.7 s⁻¹
- kcat/Km [2]: 5500 M⁻¹ s⁻¹
- Km [3]: 9300 ± 1100 µM
- kcat [3]: 0.60 ± 0.02 s⁻¹
- kcat/Km [3]: 60 M⁻¹ s⁻¹
